This data set can be described thus: soluble on expression in E. coli; label from the status in PepcDB or PDB records.
“SLAQTQLIQSEKMSSLGQLIAGVAHEINNPVNFIYGNLRYVAEYAQDLLHLLEKYQKFLPVTPPELESELDNIDLEFIIQDLPKLLDSMKLGTGRIVEIVQSLKNFSRHDEAEMKAVNIHDGIDGTLMILHHRLKAAIRRPKIEIVKDYAKLPLIECYPGKLNQVFMNILANAIDALEEGMGNEEIPPPTGQITIRTEVLDNQWVVIRIADNGPGMKEEVIRRIYDPFFTTKDVGKGTGLGMAISYQIVVDKHGGMLKCRSQPGEGTEFWIQIPVNCALADAAEEG”: the “soluble on expression in E. coli” value is reported as “not soluble”.

With “GMMFKWPWKADDESGNAEMPWEQALAIPVLAHLSSTEQHKLTQMAARFLQQKRLVALQGLELTPLHQARIAMLFCLPVLELGIEWLDGFHEVLIYPAPFIVDDEWEDDIGLVHNQRVVQSGQSWQQGPVVLNWLDIQDSFDASGFNLVVHEVAHKLDTRNGDRASGVPLIPLREVAGWEHDLHAAMNNIQDEIDLVGESAASIDAYAATDPAECFAVLSEYFFSAPELFAPRFPALWQRFCHFYRQDPLARRRENGLQDEGDRRIVH”, the “soluble on expression in E. coli” value was “soluble”.

Turning to “MAHHHHHHMKCFYITEKGKKQNFRNIKLITFDLDHTIWNIDGLLNYADKECYEYMKKNYRRLYDYLQEEYQLSITNLVKQLLENKIEDNNDGVQTLTNMRIDALKFLAKKTNYDEGKFVSEIQELWKEKKNDVHLFISPGTLEYLRELKRRGYTLGAITNGDSDVNGIKFLNEIFTFVIRSMDYNHSKPSVEIFNIAENILKKKNFHFEIHQWMHVGDDVYTDIMGAKNKNINCAWITMFRDGSEVPPNDWYPYLKLKLEENGDSHLSQYDPFADGLFSRFRRRDVVLPYEYIDIE”, the “soluble on expression in E. coli” value is given as “not soluble”.

On to “GKNVMVEPHRHEGVFICRGKEDALVTKNLVPGESVYGEKRVSISEGDDKIEYRAWNPFRSKLAAAILGGVDQIHIKPGAKVLYLGAASGTTVSHVSDIVGPDGLVYAVEFSHRSGRDLINLAKKRTNIIPVIEDARHPHKYRMLIAMVDVIFADVAQPDQTRIVALNAHTFLRNGGHFVISIKANCIDSTASAEAVFASEVKKMQQENMKPQEQLTLEPYERDHAVVVGVYRP”, for which the “soluble on expression in E. coli” value is reported as “soluble”.

As to “MRYALAACLLLLAASSFVDAKKKKIADDELGELLDNIDADEEKKSVEPAKNPCEDHQCGWGKECVVGKKGEPTCECISKCPELDGDPMDKVCANNNQTFTSLCDLYRERCLCKRKSKECSKAFNAKVHLEYLGECKKLDECTEEHMAQFPERMADWLFQVMKELKKRRELHKLEWEELLSEAENDDEKKHVYPVIWKFCELDTKPHDKSVSHHELIPITAPVIPMESCIKPFLEGCDANNDGNISIKEWGKCLGLKEGEIQERC”, the “soluble on expression in E. coli” value is “not soluble”.

Regarding “MKNDEVLLSIKNLKQYFNAGKKNEVRAIENISFDIYKGETLGLVGESGCGKSTTGKSIIKLNDITSGEILYEGIDIQKIRKRKDLLKFNKKIQMIFQDPYASLNPRLKVMDIVAEGIDIHHLATDKRDRKKRVYDLLETVGLSKEHANRYPHEFSGGQRQRIGIARVLAVEPEFIIADEPISALDVSIQAQVVNLLLKLQRERGITFLFIAHDLSMVKYISDRIAVMHFGKIVEIGPAEEIYQNPLHDYTKSLLSAIPQPDPESERSRKRFSYIDDEANNHLRQLHEIRPNHFVFSTEEEAAQLRENKLVTQN”, the “soluble on expression in E. coli” value is “not soluble”.

As for “AGHMADGELNVDSLITRLLEVRGCRPGKIVQMTEAEVRGLCIKSREIFLSQPILLELEAPLKICGDIHGQYTDLLRLFEYGGFPPEANYLFLGDYVDRGKQSLETICLLLAYKIKYPENFFLLRGNHECASINRIYGFYDECKRRFNIKLWKTFTDCFNCLPIAAIVDEKIFCCHGGLSPDLQSMEQIRRIMRPTDVPDTGLLCDLLWSDPDKDVQGWGENDRGVSFTFGADVVSKFLNRHDLDLICRAHQVVEDGYEFFAKRQLVTLFSAPNYCGEFDNAGGMMSVDETLMCSFQILKPSEKKAKYQYGGLNSGRPVTPPRTANPPKKR”, the “soluble on expression in E. coli” value is listed as “soluble”.

As for “MKVCLQCENFFSSADWACPSCGYQPERLNGIEAHASEFAHGGGGFKPEYFSELSRLEAGNFWFRARNELILWALRTYKPNAGAFLEVGCGTGFVLSGIARACPEIALNGSEIFLAGLFHAAKRVPSTHFMQMDARRVPFVEEFDAIGAFDVLEHIEEDETVLAQLHNAIKPSGVLLLTVPQHPRLWSASDDYACHVRRYTRVEIEQKVLTAGFELLRSSSFVTSLLPVMMLSRVLQKRKTKDFDPAGELKINAALNKVFYGLMMLELAGIRLGMNYPVGGSRLVVAKKQSALEHHHHHH”, the “soluble on expression in E. coli” value is “not soluble”.

Values taken from the DeepSol protein solubility set.
